Target: IAP-PLAP alkaline phosphatase heterodimer (Homo sapiens (Human), UniProt P09923;P05187 20-503;23-506, GPI-anchored, glycosylated)
Experiment: flow; LoVo cells, binding buffer, 4 C
Settings: copies: 1;1; label: FITC or AF647

IAP-PLAP alkaline phosphatase heterodimer, sequence (P09923 20-503, chain 1 of 2): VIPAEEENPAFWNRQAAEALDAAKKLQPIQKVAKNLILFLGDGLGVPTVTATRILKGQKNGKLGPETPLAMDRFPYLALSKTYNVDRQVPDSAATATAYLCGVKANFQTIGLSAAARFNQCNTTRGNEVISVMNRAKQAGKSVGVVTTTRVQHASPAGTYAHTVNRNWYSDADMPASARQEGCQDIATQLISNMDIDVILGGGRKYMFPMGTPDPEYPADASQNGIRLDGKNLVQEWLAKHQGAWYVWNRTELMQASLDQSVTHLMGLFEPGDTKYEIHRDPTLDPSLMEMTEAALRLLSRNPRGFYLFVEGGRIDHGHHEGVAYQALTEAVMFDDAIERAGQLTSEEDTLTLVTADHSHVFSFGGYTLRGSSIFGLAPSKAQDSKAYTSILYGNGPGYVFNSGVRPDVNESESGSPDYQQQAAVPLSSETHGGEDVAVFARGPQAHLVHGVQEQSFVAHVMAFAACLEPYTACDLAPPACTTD
IAP-PLAP alkaline phosphatase heterodimer, sequence (P05187 23-506, chain 2 of 2): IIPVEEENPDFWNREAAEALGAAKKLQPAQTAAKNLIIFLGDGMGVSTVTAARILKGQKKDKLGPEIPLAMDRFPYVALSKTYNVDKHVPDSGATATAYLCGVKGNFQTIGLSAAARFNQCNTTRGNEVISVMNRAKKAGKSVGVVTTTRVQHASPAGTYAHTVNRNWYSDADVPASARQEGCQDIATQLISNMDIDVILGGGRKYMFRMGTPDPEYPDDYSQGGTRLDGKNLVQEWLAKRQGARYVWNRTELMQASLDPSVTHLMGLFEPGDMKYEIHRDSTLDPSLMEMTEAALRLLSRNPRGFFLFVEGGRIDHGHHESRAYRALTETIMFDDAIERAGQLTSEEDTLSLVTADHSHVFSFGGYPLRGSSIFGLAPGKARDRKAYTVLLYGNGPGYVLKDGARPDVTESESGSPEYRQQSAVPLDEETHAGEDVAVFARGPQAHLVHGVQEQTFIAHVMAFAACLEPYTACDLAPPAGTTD

In the case of TAAAAAATAGGGGTCGGTGTGGGTGGTTATGATTGGCTTTTTTA (ssDNA) [BG4], the Kd is reported as 11.5 ± 2.3 nM.

TAGGGGTCGGTGTGGGTGGTTATGATTGGC (ssDNA) [BG2c] gave a Kd of 9.3 ± 1.6 nM.

From publication PMC6548965, “Aptameric Probe Specifically Binding Protein Heterodimer Rather Than Monomers”
